Here are results for three molecules from patent US9474782B2, “Use of decorin for increasing muscle mass” (Association Francaise contre les Myopathies, priority 2009, dated 2016).

Several values for one entry are separate records, joined by “and”; a condition that tells them apart may be missing. Identical values can stand only once.

For test [1], the system named is mdx mice. Put plainly: Weight of tibialis anterior muscles after intramuscular injection into dystrophic mdx mice. The settings on record: for Activity of decorin fragment on muscle growth (ability to increase muscle mass), in words: decorin fragments, intramuscular injection. The class given is in vivo, mouse. The procedure:
The protein used was recombinant mouse decorin (mDecorin) of sequence SEQ ID NO: 6, provided by R&D Systems. Twenty-four to forty hours before the injection, 100 μl of 150 mM sterile NaCl and 6 μl of 250 μM ZnCl2 were added to 100 μg of mDecorin powder. The final volume was 106 μl with a final concentration of approximately 1 μg/μl. For the injections into the control muscles a mixture was also prepared of 100 μl of 150 mM NaCl and 6 μl of 250 μM ZnCl2. All these solutions, after being vortexed, were stored at 4° C. In Vivo Injection mdx dystrophic ([…] muscular dystrophy) or gamma-sarcoglycan −/− mice were used that were at least 6 weeks old. 20 μg of mDecorin, i.e. 22 μl of the solution described above (20 μg Decorin+15 μM ZnCl2/22 μl NaCl), were injected into the left tibialis anterior (LTA), the muscle treated. 22 μl of the control solution described above (15 μM ZnCl2/22 μl NaCl) were administered into the control muscle, the right tibialis anterior (RTA). A specific number of days after injection, the mice were sacrificed and the RTA and LTA were removed, weighed then frozen for further histological study. Preparation and Injection of the Solution Containing the Peptide mDCN 31-71: […] It was dissolved at 2 mg/ml in 150 mM NaCl and stored at −80° C. For injections, the preparation protocol was identical to that used for the protein, i.e. 24-40 hours before injection, the desired amount of peptide was removed from the stock solution and mixed with a solution of zinc chloride (ZnCl2) and 150 mM NaCl, to produce a final zinc concentration of 15 μM. The injection protocol was identical to that used for the protein. The RTA and LTA muscles were collected 7 (D7), 14 (D14) or 21 (D21) days after the injection and weighed. The experiment was repeated on three separate mice each time. The results are summarised in the following tables: mdx Mice were Injected Intramuscularly into the TA with the Following Formulations: LTA 1: 65 μg peptide 41 DCN+15 μM ZnCl2/33 μl NaCl; RTA 2: 15 μM ZnCl2/33 μl NaCl. At D18, the mice were sacrificed and the weight of the RTA and LTA muscles was measured.

The subject of test [2] is gamma-sarcoglycan -/- mice. Nature of the test: Weight of tibialis anterior muscles at D18 after intramuscular injection into dystrophic gamma-sarcoglycan -/- mice. In kind it is in vivo. Particulars: D18, one value per mouse. As to the method: The protein used was recombinant mouse decorin (mDecorin) of sequence SEQ ID NO: 6, provided by R&D Systems. Twenty-four to forty hours before the injection, 100 μl of 150 mM sterile NaCl and 6 μl of 250 μM ZnCl2 were added to 100 μg of mDecorin powder. The final volume was 106 μl with a final concentration of approximately 1 μg/μl. For the injections into the control muscles a mixture was also prepared of 100 μl of 150 mM NaCl and 6 μl of 250 μM ZnCl2. All these solutions, after being vortexed, were stored at 4° C. In Vivo Injection mdx dystrophic ([…] muscular dystrophy) or gamma-sarcoglycan −/− mice were used that were at least 6 weeks old. 20 μg of mDecorin, i.e. 22 μl of the solution described above (20 μg Decorin+15 μM ZnCl2/22 μl NaCl), were injected into the left tibialis anterior (LTA), the muscle treated. 22 μl of the control solution described above (15 μM ZnCl2/22 μl NaCl) were administered into the control muscle, the right tibialis anterior (RTA). A specific number of days after injection, the mice were sacrificed and the RTA and LTA were removed, weighed then frozen for further histological study. A second series of experiments was performed on four gamma-sarcoglycan −/− mice. The protocol was identical to that described for mdx mice. The mice were sacrificed on D18.

Take “SEQ ID NO:15: fragment of 30 residues (residues 42 to 71 of murine decorin SEQ ID NO: 6) (DNPLISMCPYRCQCHLRVVQCSDLGLDKVP; murine 42-71 DCN)”: the “Activity of decorin fragment on muscle growth (ability to increase muscle mass), in words” value in test [1] is listed as “also active”.
Turning to “mDCN 31-71: peptide (SEQ ID NO: 7) corresponding to residues 31-71 of murine decorin, zinc-binding N-terminal part, synthesised by NeoMPS (DEASGIIPYDPDNPLISMCPYRCQCHLRVVQCSDLGLDKVP; murine 31-71 DCN)”, in test [1] (65 μg peptide + 15 μM ZnCl2/33 μl NaCl intramuscular into left tibialis anterior, D18, one value per mouse), the “Weight of treated muscle (LTA)” value is 0.0583 g and 0.0468 g and 0.05 g. Also, in test [1] (65 μg peptide + 15 μM ZnCl2/33 μl NaCl intramuscular, treated LTA vs control RTA, D18, one value per mouse), the Growth was 8.77% and 19.39% and 24.69%. Further, the “Activity of decorin fragment on muscle growth (ability to increase muscle mass), in words” value in test [1] is reported as “had the required activity”.

B1: mDecorin: recombinant mouse decorin (mDecorin) of sequence SEQ ID NO: 6, provided by R&D Systems (protein)
chain: MKATLIFFLLAQVSWAGPFEQRGLFDFMLEDEASGIIPYDPDNPLISMCPYRCQCHLRVVQCSDLGLDKVPWDFPPDTTLLDLQNNKITEIKEGAFKNLKDLHTLILVNNKISKISPEAFKPLVKLERLYLSKNQLKELPEKMPRTLQELRVHENEITKLRKSDFNGLNNVLVIELGGNPLKNSGIENGAFQGLKSLSYIRISDTNITAIPQGLPTSLTEVHLDGNKITKVDAPSLKGLINLSKLGLSFNSITVMENGSLANVPHLRELHLDNNKLLRVPAGLAQHKYIQVVYLHNNNISAVGQNDFCRAGHPSRKASYSAVSLYGNPVRYWEIFPNTFRCVYVRSAIQLGNYK
modifications: murine DCN
As for B1, the “Weight of treated muscle (LTA)” value was 0.0682 g and 0.0781 g and 0.0771 g in test [1] (20 μg mDecorin + 15 μM ZnCl2 intramuscular into left tibialis anterior, Day 7, one value per mouse); 0.1124 g and 0.103 g and 0.0911 g in test [1] (20 μg mDecorin + 15 μM ZnCl2 intramuscular into left tibialis anterior, Day 14, one value per mouse); 0.1041 g and 0.0943 g and 0.1003 g in test [1] (20 μg mDecorin + 15 μM ZnCl2 intramuscular into left tibialis anterior, Day 21, one value per mouse); 0.0505 g and 0.0485 g and 0.0593 g and 0.0551 g in test [2] (20 μg mDecorin + 15 μM ZnCl2 intramuscular into left tibialis anterior). In addition, in test [1] (20 μg mDecorin + 15 μM ZnCl2 intramuscular, treated LTA vs control RTA, Day 7, one value per mouse), the “Growth in % (100*LTA/RTA) − 100” value is 3.18% and 0.90% and 2.94%. Further, the Growth is 58.98% and 48.41% and 6.67% in test [1] (20 μg mDecorin + 15 μM ZnCl2 intramuscular, treated LTA vs control RTA, Day 14, one value per mouse); 10.75% and 17.43% and 12.31% and 24.10% in test [2] (20 μg mDecorin + 15 μM ZnCl2 intramuscular, treated LTA vs control RTA). Moreover, the “Growth (increase in muscle mass)” value in test [1] (20 μg mDecorin + 15 μM ZnCl2 intramuscular, treated LTA vs control RTA, Day 21, one value per mouse) is 53.09% and 66.31% and 37.21%; in test [1] (20 μg mDecorin + 15 μM ZnCl2 intramuscular, treated LTA vs control RTA, Day 21, one value per mouse, listed as decorin), 53.09% and 66.31%.
